These results are taken from doi:10.1101/2025.01.02.631089, “The atypical filament assembly underpins the inflammasome-independent functions of IFI16” (bioRxiv, 2025).

The data set concerns the molecule itself. The data set can be described thus: cryo-EM structure; auto-assembled filaments of recombinant IFI16 PYD, 73 uM, in 40 mM HEPES pH 7.4, 160 mM NaCl, 1 mM EDTA, 1 mM DTT; helical reconstruction.

B1: IFI16^PYD (pyrin domain of human Interferon Inducible Protein 16, residues 1-94) (domain or fragment, UniProt Q16666 1-94, looked up)
chain: MGKKYKNIVLLKGLEVINDYHFRMVKSLLSNDLKLNLKMREEYDKIQIADLMEEKFRGDAGLGKLIKIFEDIPTLEDLAETLKKEKLKVKGPAL
notes: Interferon inducible protein 16 (IFI16), human, pyrin domain, residues 1-94; Assembles into a helical filament (three-start helix, 134.6 degrees rotation, 5.6 Å rise, no rotational symmetry); The number of copies in a filament is not defined; Cloned in pET21b; also called IFI16^PYD filament; source: E. coli BL21(DE3), purified (Ni-NTA, Superdex 75 SEC)
On to B1, for which the binding result is given as “binds”.
